# In PMC5916898, “Global profiling of protein–DNA and protein–nucleosome binding affinities using quantitative mass spectrometry”:
# T1: ZBTB20 (Homo sapiens, UniProt Q9HC78)
# T1 sequence: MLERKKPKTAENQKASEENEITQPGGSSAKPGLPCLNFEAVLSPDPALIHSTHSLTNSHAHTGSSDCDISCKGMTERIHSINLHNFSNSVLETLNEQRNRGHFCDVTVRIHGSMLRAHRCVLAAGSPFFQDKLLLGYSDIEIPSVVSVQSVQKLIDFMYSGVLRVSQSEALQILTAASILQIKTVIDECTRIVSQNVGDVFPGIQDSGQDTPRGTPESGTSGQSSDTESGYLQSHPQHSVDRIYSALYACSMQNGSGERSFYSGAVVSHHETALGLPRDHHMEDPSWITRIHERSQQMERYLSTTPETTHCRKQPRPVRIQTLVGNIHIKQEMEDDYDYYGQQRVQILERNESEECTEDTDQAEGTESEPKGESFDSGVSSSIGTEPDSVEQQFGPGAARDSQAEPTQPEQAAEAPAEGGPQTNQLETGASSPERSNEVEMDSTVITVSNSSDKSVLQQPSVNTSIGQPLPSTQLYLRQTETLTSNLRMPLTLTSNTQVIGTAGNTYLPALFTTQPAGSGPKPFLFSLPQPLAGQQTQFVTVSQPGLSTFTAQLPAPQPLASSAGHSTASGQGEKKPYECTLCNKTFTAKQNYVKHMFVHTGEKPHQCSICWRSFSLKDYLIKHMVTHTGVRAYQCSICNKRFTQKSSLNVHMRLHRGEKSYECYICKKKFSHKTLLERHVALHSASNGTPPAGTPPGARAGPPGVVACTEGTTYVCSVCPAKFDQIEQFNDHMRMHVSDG
# T2: GLIS2 (Homo sapiens, UniProt Q9BZE0)
# T2 sequence: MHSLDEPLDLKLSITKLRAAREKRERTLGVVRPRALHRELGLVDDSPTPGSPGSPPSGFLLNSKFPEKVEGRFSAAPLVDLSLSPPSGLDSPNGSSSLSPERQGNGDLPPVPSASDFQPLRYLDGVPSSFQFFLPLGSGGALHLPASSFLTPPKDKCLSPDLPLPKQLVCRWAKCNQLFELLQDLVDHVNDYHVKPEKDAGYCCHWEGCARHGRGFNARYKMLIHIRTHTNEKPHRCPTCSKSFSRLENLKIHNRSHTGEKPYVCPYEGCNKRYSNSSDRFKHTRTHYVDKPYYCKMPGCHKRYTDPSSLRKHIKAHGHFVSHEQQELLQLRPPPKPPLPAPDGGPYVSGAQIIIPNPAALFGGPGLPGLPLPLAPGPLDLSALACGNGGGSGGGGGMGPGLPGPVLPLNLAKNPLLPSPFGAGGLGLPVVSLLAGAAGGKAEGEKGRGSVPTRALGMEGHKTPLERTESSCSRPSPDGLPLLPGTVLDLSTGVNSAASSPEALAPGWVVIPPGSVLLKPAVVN
# T3: ESRRA (Homo sapiens, UniProt P11474)
# T3 sequence: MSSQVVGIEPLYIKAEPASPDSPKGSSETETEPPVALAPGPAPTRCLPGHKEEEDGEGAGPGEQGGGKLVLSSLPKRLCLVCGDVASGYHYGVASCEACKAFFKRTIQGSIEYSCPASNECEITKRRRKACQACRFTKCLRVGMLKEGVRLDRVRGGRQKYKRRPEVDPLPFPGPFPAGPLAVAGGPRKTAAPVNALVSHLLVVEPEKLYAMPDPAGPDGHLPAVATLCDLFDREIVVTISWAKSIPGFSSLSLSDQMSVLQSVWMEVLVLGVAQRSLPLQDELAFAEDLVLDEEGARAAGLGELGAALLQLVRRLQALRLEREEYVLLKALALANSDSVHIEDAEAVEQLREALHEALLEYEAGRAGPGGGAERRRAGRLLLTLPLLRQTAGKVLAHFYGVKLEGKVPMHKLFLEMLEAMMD
# B1: TATA-box (dsDNA)
# DNA 1: GCGGCGCTCTATATAAGTGGGCAGTG
# DNA 2: CACTGCCCACTTATATAGAGCGCCGC
# B2: CTCF (dsDNA)
# DNA 1: TCAGAGTGGCGGCCAGCAGGGGGCGCCCTTGCCAGA
# DNA 2: TCTGGCAAGGGCGCCCCCTGCTGGCCGCCACTCTGA
# Tests used:
# Experiment in all cases: pulldown; 150 mM NaCl, 50 mM Tris pH 8, 0.25% NP-40, 1 mM TCEP; 4 C, 2 h; 100 ug HeLa nuclear lysate
# Settings in all cases: protein: extract; label: 5' biotin (strand 1)
# HOXC10 = HOXC10 (Homo sapiens, UniProt Q9NYD6)
# Sequence of HOXC10 (Q9NYD6 whole entry): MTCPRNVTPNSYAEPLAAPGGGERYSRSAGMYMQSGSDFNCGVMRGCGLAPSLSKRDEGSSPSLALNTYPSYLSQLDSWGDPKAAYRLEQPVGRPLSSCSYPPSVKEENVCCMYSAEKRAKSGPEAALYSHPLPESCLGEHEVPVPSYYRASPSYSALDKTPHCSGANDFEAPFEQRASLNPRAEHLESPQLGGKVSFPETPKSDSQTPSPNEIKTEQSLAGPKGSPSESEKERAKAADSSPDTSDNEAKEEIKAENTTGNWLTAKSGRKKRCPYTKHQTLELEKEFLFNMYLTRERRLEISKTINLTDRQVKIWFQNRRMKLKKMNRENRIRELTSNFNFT
# ZFHX3 = ZFHX3 (Homo sapiens, UniProt Q15911)
# ZBTB20 = biological target: T1, ZBTB20
# ZNF24 = ZNF24 (Homo sapiens, UniProt P17028)
# Sequence of ZNF24 (P17028 whole entry): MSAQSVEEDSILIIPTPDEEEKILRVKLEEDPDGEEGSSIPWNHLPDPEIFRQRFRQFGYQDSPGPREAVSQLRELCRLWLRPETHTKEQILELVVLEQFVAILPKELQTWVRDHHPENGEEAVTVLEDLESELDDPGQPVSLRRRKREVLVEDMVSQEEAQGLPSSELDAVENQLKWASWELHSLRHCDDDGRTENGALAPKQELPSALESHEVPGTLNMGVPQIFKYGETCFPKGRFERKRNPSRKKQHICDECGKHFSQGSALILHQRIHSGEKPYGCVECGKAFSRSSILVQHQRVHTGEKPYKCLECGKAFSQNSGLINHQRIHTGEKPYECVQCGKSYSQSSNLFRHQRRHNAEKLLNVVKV
# GLIS2 = biological target: T2, GLIS2
# SMAD4 = SMAD4 (Homo sapiens, UniProt Q13485)
# Sequence of SMAD4 (Q13485 whole entry): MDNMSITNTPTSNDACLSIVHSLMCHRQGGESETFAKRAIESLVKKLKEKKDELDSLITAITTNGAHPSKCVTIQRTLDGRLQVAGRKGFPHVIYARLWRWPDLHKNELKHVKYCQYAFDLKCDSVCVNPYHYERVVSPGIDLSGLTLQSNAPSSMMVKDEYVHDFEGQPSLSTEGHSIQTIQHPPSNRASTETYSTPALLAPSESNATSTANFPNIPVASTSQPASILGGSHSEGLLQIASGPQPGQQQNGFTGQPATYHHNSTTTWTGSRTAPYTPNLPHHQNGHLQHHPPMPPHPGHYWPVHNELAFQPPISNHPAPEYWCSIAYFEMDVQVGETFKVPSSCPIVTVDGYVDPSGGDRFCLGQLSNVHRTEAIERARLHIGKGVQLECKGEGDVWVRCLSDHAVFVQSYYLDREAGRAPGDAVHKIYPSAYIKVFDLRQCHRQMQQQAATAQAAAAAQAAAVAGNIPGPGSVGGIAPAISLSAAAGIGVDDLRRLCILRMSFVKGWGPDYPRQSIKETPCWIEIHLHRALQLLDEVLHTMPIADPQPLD
# ZNF787 = ZNF787 (Homo sapiens, UniProt Q6DD87)
# Sequence of ZNF787 (Q6DD87 whole entry): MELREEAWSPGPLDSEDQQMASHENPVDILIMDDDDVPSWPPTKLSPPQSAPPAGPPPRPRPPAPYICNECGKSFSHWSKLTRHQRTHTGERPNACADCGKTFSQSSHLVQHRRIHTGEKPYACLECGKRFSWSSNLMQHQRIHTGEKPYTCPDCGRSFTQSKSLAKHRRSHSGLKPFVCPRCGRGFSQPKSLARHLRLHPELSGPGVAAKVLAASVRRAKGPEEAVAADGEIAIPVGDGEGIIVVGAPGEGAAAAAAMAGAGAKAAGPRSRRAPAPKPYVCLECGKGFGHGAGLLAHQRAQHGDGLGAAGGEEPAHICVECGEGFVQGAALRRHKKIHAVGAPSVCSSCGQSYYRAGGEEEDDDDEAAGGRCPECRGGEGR
# SP4 = SP4 (Homo sapiens, UniProt Q02446)
# Sequence of SP4 (Q02446 whole entry): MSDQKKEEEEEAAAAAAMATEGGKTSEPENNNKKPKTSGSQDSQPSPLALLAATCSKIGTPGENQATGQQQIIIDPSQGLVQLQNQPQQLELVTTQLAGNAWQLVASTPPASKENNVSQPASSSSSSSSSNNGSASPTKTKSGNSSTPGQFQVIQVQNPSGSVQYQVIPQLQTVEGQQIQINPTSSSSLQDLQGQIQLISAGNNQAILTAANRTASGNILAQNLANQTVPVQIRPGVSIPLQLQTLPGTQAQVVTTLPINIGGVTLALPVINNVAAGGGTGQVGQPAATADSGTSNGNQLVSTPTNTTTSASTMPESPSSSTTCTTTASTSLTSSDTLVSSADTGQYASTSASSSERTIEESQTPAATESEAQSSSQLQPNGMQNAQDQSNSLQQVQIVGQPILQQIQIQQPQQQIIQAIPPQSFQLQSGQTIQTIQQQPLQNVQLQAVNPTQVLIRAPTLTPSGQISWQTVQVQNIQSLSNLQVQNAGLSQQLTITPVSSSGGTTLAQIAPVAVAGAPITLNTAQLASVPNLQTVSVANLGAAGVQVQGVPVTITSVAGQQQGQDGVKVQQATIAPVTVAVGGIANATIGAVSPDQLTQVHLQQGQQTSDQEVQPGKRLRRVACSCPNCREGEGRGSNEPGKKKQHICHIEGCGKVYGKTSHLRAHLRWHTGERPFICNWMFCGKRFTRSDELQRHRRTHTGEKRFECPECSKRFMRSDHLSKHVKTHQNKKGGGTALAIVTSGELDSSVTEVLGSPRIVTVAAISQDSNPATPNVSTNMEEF
# ESRRA = biological target: T3, ESRRA
# YY1 = YY1 (Homo sapiens, UniProt P25490)
# Sequence of YY1 (P25490 whole entry): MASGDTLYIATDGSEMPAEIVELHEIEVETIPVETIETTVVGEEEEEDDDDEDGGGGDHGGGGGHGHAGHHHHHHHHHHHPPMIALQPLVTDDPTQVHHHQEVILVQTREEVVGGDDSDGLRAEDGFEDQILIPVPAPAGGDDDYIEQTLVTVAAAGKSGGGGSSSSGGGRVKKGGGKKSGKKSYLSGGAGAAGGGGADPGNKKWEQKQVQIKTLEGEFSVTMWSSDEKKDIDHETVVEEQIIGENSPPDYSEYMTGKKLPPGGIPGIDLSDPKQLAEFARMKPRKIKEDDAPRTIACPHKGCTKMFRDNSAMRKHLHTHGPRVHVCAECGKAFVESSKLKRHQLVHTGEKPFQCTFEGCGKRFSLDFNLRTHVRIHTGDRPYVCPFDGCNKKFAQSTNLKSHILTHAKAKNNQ
Binder,apparent K (half saturation) (HOXC10) [nM],apparent K (half saturation) (ZFHX3) [nM],apparent K (half saturation) (ZBTB20) [nM],apparent K (half saturation) (ZNF24) [nM],apparent K (half saturation) (GLIS2) [nM],apparent K (half saturation) (SMAD4) [nM],apparent K (half saturation) (ZNF787) [nM],apparent K (half saturation) (SP4) [nM],apparent K (half saturation) (ESRRA) [nM],apparent K (half saturation) (YY1) [nM]
B1,87.8,289,98.7,,,,,,,
B2,,,,388,15,153,370,41.3,319,400
